Measured values as given in patent publication US20190077860A1 (EISAI R AND D MANAGEMENT, published 2019).

Experiments:
[1] = target: T1, human EphA4 extracellular region-SEAP-His protein (human, UniProt P54764 20-547); test: SPR (Biacore A100), antibody captured, EphA4-SEAP-His analyte
T1 construct: also called hEphA4-SEAP-His
Description: (§1) The binding affinity of antibody A obtained in Example 1 for mouse and human EphA4 was determined by surface plasmon resonance (SPR) using Biacore A100 (GE Healthcare). First, a rat anti-mouse IgG₁ antibody produced with a conventional procedure by immunizing rat with a mouse IgG₁ antibody was immobilized on sensor chip CM5. The immobilization of the rat anti-mouse IgG1 antibody on sensor chip CM5 was performed by the amine coupling method using N-hydroxysuccinimide (NHS) and N-ethyl-N′-(3-dimethylaminopropyl)carbodiimide hydrochloride (EDC). Ethanolamine was used in blocking (the sensor chip and the reagents for immobilization were all manufactured by GE Healthcare). The antibody was diluted with a buffer solution for immobilization (10 mM sodium acetate, pH 4.5) into 1 to 2 μg/mL and immobilized on the sensor chip according to the protocol attached to Biacore A100. Antibody A was diluted with a running buffer solution HBS-EP (GE Healthcare, BR-1001-88), injected onto a flow cell for 120 seconds, and captured (amount of the antibody captured: approximately 70 to 100 RU). Subsequently, mouse or human EphA4 extracellular region-SEAP-His serially diluted in the range of 50, 25, 12.5, 6.3, 3.1, 1.6, 0.8, and 0 nM using HBS-EP was added to the sensor chip for 120 seconds. […]

[2] = target: mouse EphA4 extracellular region-SEAP-His protein (mouse); test: competition ELISA, competitor biotinylated mouse Ephrin B2-Fc; alternative value in brackets
Description: Antibody A-Fab and antibody A-F(ab′)₂ obtained in Example 5 were evaluated for their inhibitory activity against the binding between EphA4 and its ligand according to the following steps. Each well of a 96-well plate (Nunc) was coated with an anti-alkaline phosphatase antibody (Thermo Fisher Scientific). After incubation overnight at 4° C., each well was blocked with 1% BlockAce (DS Pharma Biomedical) at room temperature for 1 hour. After washing with 0.05% Tween 20/PBS (Thermo Fisher Scientific) three times, the mouse EphA4 extracellular region-SEAP-His protein obtained by the method of Example 1 was added (final concentration: 10 nM) to each well and incubated at room temperature for 1 hour. After washing three times, a ligand and serially diluted antibody A (0, 0.003, 0.01, 0.03, 0.1, 0.3, 1, 3, 10, 30, 100, 300, 1000, and 3000 nM), antibody A-Fab (0, 0.003, 0.01, 0.03, 0.1, 0.3, 1, 3, 10, 30, 100, 300, 1000, and 3000 nM), antibody A-F(ab′)₂ (0, 0.003, 0.01, 0.03, 0.1, 0.3, 1, 3, 10, 30, 100, 300, 1000, and 3000 nM), or the EphA4 inhibitor KYL peptide ([…], 0, 0.0003, 0.001, 0.003, 0.01, 0.03, 0.1, 0.3, 1, 3, 10, 30, 100, 300, 1000, and 3000 μM, its synthesis was outsourced to Toray Research Center) were added to each well. […] The absorbance at 450 nm was read using a microplate reader (Molecular Devices or PerkinElmer). […]

[3] = target: T1, human EphA4 extracellular …; test: SPR (Biacore A100), antibody A captured on a rat anti-mouse IgG1 CM5 chip, human EphA4 extracellular region-SEAP-His as analyte at 0.8-50 nM, 1:1 fit
Description: as §1

T1 sequence (P54764 20-547): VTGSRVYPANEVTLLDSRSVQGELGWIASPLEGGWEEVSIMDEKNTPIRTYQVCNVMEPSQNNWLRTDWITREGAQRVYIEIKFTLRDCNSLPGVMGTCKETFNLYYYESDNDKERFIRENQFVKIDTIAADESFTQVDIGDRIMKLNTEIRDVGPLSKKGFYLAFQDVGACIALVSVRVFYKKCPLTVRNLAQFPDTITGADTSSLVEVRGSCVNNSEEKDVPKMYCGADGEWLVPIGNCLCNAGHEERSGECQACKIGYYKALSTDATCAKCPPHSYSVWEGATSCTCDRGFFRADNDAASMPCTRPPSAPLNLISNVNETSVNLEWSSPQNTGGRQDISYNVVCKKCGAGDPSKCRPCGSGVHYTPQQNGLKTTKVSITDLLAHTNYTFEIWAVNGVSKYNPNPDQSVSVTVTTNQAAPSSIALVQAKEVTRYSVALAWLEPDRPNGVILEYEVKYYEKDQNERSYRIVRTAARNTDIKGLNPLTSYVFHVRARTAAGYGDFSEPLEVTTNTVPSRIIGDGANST
Sequence of mouse EphA4 extracellular region-SEAP-His protein (mouse) (chain, as listed by the source limits assumed): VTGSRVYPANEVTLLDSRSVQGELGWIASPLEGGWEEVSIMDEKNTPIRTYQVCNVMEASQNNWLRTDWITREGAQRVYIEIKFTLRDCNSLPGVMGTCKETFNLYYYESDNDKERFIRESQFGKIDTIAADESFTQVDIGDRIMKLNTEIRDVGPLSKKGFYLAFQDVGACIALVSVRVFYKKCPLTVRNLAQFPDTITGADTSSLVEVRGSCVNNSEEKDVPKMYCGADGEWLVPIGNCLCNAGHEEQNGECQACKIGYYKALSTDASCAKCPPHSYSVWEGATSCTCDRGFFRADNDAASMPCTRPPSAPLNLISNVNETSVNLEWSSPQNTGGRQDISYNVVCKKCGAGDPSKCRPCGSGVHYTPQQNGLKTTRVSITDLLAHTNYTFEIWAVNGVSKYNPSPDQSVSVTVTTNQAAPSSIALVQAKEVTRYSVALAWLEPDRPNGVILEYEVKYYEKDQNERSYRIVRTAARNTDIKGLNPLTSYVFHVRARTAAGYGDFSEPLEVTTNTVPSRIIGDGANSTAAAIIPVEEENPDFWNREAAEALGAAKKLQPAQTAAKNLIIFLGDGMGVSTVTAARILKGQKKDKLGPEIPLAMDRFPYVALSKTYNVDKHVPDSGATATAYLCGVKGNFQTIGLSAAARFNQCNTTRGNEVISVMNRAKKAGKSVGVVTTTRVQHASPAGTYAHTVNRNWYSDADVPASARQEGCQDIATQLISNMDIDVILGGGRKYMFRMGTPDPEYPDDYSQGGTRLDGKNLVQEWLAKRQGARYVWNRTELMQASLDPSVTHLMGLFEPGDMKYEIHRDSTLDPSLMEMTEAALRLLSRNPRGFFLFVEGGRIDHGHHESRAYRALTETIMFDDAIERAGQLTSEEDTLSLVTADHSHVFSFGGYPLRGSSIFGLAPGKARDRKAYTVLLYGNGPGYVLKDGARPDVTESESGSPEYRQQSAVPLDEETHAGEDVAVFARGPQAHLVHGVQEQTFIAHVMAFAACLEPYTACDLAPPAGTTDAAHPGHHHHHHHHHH

Kd [1]: 0.661 nM | IC50 [2]: 3.6 nM | koff [3]: 0.000152 s⁻¹ | kon [3]: 210000 M⁻¹ s⁻¹
B1: antibody A (antibody, mouse IgG1, kappa, V domains shown)
VH: QIQLVQSGPELKKPGETVKISCKASGYTFTDYSMHWVKQAPGKGLKWMGWINTETGEPTYADDFKGRFAFSLETSASTAYLQINNLKNEDTATYFCARIPLYYYGSRYWYFDVWGAGTTVTVSS
VL: DIQMTQSPASLSVSVGETVTITCRASENIYRNLAWYQQKQGKSPQLLVYAATNLADGVPSRFSGSGSGTQYSLKINSLQSEDFGSYYCQHFWGTPWTFGGGTKLEIKR
notes: mouse IgG1 heavy chain, kappa light chain; purified from hybridoma supernatant; also called anti-EphA4 monoclonal antibody; antibody A-IgG
